Measurements as given in US20240018256A1 (JUNO THERAPEUTICS, published 2024).

Columns and labels:
human CD19 [1] = molecular target: T1, human CD19 (human, UniProt P15391 20-556); test: flow cytometry on CD19-expressing cells (n = 2)
T1 sequence: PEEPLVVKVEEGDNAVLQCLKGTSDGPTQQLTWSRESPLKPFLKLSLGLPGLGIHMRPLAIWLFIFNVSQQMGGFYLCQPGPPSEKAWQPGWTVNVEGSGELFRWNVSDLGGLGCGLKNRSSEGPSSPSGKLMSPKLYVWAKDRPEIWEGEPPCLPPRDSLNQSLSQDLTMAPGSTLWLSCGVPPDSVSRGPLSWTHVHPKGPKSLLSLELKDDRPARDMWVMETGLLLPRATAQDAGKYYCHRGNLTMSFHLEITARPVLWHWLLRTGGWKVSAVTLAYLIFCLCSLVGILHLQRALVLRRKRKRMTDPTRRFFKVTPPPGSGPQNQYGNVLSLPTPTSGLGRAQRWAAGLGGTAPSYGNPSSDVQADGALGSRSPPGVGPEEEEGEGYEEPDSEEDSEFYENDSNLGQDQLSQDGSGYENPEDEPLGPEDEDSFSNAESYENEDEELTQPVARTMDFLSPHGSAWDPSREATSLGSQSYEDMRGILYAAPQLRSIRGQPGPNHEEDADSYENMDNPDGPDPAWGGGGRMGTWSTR

human CD19 [2] = molecular target: T1, human CD19; test: flow cytometry competition for binding with FMC63 (n = 3)

B1: Clone 241 scFv (scFv)
scFv: EVQLVQSGGGLVQPGRSLRLSCAASGFTFDDYAMHWVRQAPGKGLEWVSGISWNSGSIGYADSVKGRFTISRDNAKNSLYLQMNSLRAEDTAVYYCARDQGYHYYDSAEHAFDIWGQGTVVTVSSGGGGSGGGGSGGGGSAIRMTQSPSSLSASVGDRVTVTCQASQDISNYLNWYQQKPGRAPKLLIYDASNVKAGVPSRFSGGGSGTDFTLTISSLQPEDFATYYCQQSYSTPQAYTFGQGTKLDIK
notes: Human scFv
- EC50 (human CD19 [1]): 5.2 nM
- IC50 (human CD19 [2]): 14.6 nM
